The test system of test [1] is OTI (CD8+) T cells in unfractionated splenocytes. Description: Antigen presentation assay (MHC class I), unfractionated OTI splenocytes, [3H]thymidine T cell proliferation. Type of test: cell-based, mouse. How it is done: FIGS. 3A and 3B are graphs showing that nonasaccharide 3-1-promoted presentation via MHC class I pathway for presentation to CD8^+ T cells. […] Unfractionated OTI splenocytes (3×10^5/well) were incubated with graded doses of OVA±(OVA)-3-1 (50 ng mL^−1) or (OVA)-3-1±(BSA)-3-1 (10 μg mL^−1). Incubations were performed for seventy-two hours with [^3H]thymidine (1 μCi) added for the last twelve hours. FIG. 3B is a graph showing that the monosaccharide mannose 3-6 targets a different receptor than 3-1. OTII splenocytes were incubated with graded doses of monosaccharide-modified OVA±(BSA)-3-1 and T cell proliferation was measured as described for FIG. 3A. Values present the mean of triplicate measurements.
Accessing the transporter of antigenic peptides (TAP) and thereby achieving cross-presentation of antigen by dendritic cells to MHC class I restricted CD8+ T cells led to efficient stimulation of these T cells and, in the steady state, their apoptotic deletion from the T cell repertoire^3. To determine if the receptor promoting (OVA)-3-1 uptake can process proteins through the MHC class I pathway, (OVA)-3-1 and OVA were incubated with unfractionated splenocytes isolated from OTI (CD8^+) mice. The T cells from transgenic OTI mice recognized an eight amino acid residue sequence (SIINFEKL (SEQ ID NO: 14)) derived from OVA and were therefore utilized to gauge the efficiency of DC presentation of MHC class I antigenic peptides. A moderate (10-fold) increase in the efficiency of MHC class I presentation with (OVA)-3-1 as compared to OVA alone was observed (FIG. 3A).
Pooled inguinal lymph nodes were dissociated in 10% Fetal Bovine Serum RPMI (supplemented with 2 mM L-glutamine) and either mechanically dissociated between two glass slides or, to improve the overall cell yield, incubated in the presence of collagenase (Boehringer) and EDTA for 25 minutes at 37° C./5% CO2 to dissociate DC-T cell clusters. For antigen presentation assays with whole splenocytes, isolated spleens were injected with collagenase/EDTA, gently teased apart and incubated as described above. […]

The subject of a further test is OTII T cells. The test can be described thus: Adoptive transfer, immunization, OVA peptide/CFA rechallenge at day 8, OTII cell count at day ten. Type of test: in vivo, mouse. As for the experimental part: FIGS. 8A and 8B are a series of dot plots (FIG. 8A) and a graph (FIG. 8B) showing that the oligosaccharide-mediated targeting of steady state dendritic cells leads to T cell tolerance. […] 2×10^7 OTII splenocytes were adoptively transferred into B6.Ly5.2/Cr recipients and then immunized by subcutaneous injection with PBS, OVA (200 ng), (OVA)-3-1 (200 ng), (OVA)-3-1 (200 ng)+mBSA (50 μg) or OVA peptide (100 μg) in Incomplete Freund's Adjuvant. At 8 days after these initial immunizations, mice received an antigenic rechallenge of OVA peptide (100 μg) in Complete Freund's Adjuvant. On day ten mice were sacrificed and cells were isolated from the draining lymph node, total T cells were purified by negative selection and the number of OTII T cells were counted by FACS as described for FIG. 6. […] Purified T cells from each experimental group were seeded at 3×10^5 cells/well with purified […] dendritic cells (9×10^4/well) and were incubated for twenty-four hours±OVA peptide (100 μg mL^−1) with [^3H]thymidine (1 μCi) added for the last ten hours. Prior to [^3H]thymidine addition, an aliquot of supernatant was removed for IFN-γ determination by ELISA.
At three days post-immunization, antibody-based targeting of the DEC-205 receptor led to a 6.5-fold enhancement of T cell activation relative to non-targeted antigen^2. After seven days, however, the activated T cell population diminished in number by 88% and the remaining T cells were unresponsive to systemic challenge of antigen in the highly stimulatory adjuvant CFA. […] To more fully understand the immunological consequences of these enhancements, OVA peptide (100 μg) was administered in CFA at eight days post-antigen immunization and the T cells' ability to respond to DC-presented peptide in vitro was assayed two days later (FIGS. 8A and 8B)^2: A positive control for T cell tolerance, consisting of a high dose administration of OVA peptide (100 μg) in Incomplete Freund's Adjuvant was also included. This regimen has been shown in a number of different studies to led to a state of T cell unresponsiveness upon antigen rechallenge^24,25.

The test system of a further test is IFN-γ. The test can be described thus: IFN-γ ELISA of supernatants from purified dendritic cell/OTII T cell assay. Format: cell-based, mouse. To be noted: average; 72 h supernatants. As for the experimental part: FIGS. 4A, 4B, 4C and 4D are graphs showing that CD11c^+ dendritic cells are the main antigen presenting cells presenting 3-1-targeted antigen. […] 1.5×10^4 Splenic CD11c^+ dendritic cells purified from C57BL/6 mice and 3.0×10^4 purified OTII T cells were incubated with OVA (starting concentration 300 μg mL^−1) or (OVA)-3-1 (starting concentration 25 μg mL^−1) in graded doses for eight-four hours with [^3H]thymidine (1 μCi) added for the last twelve hours. […] Purified CD11c^+ dendritic cells and OTII T cells were incubated with (OVA)-3-1 (25 μg mL^−1)±each potential inhibitor (100 μg mL^−1). T cell proliferation was determined as for FIG. 4A. […] CD11c^+ dendritic cells and OTII T cells were incubated with OVA or (OVA)-3-1±lipopolysaccharide ([…]). Also included are all ‘non-dendritic cells’ (macrophages and B cells) obtained during the purification of the dendritic cells. T cell proliferation was determined as described in FIG. 4A. […] Supernatants from cells described in FIG. 4C were collected at forty-eight and seventy-two hours and measured for IFN-γ by ELISA; the values presented are from the seventy-two hour time point. […]
75-150 μL aliquots of supernatant were sampled from antigen presentation assays at 24, 48, and 72 hours. […] 25 μL of each supernatant were diluted 1:1 with PBS/1% BSA and analyzed in triplicate for IFN-γ, IL-10, and IL-4 using DuoSet ELISA reagents from R&D Systems. […]
On the technique in general: An ELISA detects its analyte on a solid surface through an enzyme-linked reagent.

The mark [2] stands for this setting: two days post-antigen rechallenge in CFA (day ten).

B1: (OVA)-3-1: ovalbumin modified via SMCC with nonasaccharide 3-1, average of three saccharides per OVA (conjugate)
chain: GSIGAASMEFCFDVFKELKVHHANENIFYCPIAIMSALAMVYLGAKDSTRTQINKVVRFDKLPGFGDSIEAQCGTSVNVHSSLRDILNQITKPNDVYSFSLASRLYAEERYPILPEYLQCVKELYRGGLEPINFQTAADQARELINSWVESQTNGIIRNVLQPSSVDSQTAMVLVNAIVFKGLWEKAFKDEDTQAMPFRVTEQESKPVQMMYQIGLFRVASMASEKMKILELPFASGTMSMLVLLPDEVSGLEQLESIINFEKLTEWTSSNVMEERKIKVYLPRMKMEEKYNLTSVLMAMGITDVFSSSANLSGISSAESLKISQAVHAAHAEINEAGREVVGSAEAGVDAASVSEEFRADHPFLFCIKHIATNAVLFFGRCVSP
Take B1: in test [1] ((OVA)-3-1 50 ng mL^−1 added to OVA), the “direct activation of OTI T cells” value is “did not achieve this enhancement via direct activation of T cells”. Also, in test [1] (OTI splenocytes), the “increase in the efficiency of MHC class I presentation as compared to OVA alone” value came to 10 fold. The “presentation of antigenic peptides to CD8+ T cells” value in test [1] (OTI splenocytes, graded doses) is “enhanced presentation”. The “number of OTII T cells compared with OVA immunized mice” value with OTII T cells (day ten after immunization) was “much greater number”. Moreover, the “T cell deletion in vivo” value with OTII T cells (mouse, in vivo) is given as “not observed”. For the same molecule, in the test with OTII T cells (setting [2]), the “number of OTII cells relative to the saline control group” value is recorded as 6 fold and the “number of OTII cells relative to unmodified (soluble) OVA” value is 7.8 fold.

B2: ovalbumin (protein, UniProt P01012 2-386, looked up)
Ovalbumin: GSIGAASMEFCFDVFKELKVHHANENIFYCPIAIMSALAMVYLGAKDSTRTQINKVVRFDKLPGFGDSIEAQCGTSVNVHSSLRDILNQITKPNDVYSFSLASRLYAEERYPILPEYLQCVKELYRGGLEPINFQTAADQARELINSWVESQTNGIIRNVLQPSSVDSQTAMVLVNAIVFKGLWEKAFKDEDTQAMPFRVTEQESKPVQMMYQIGLFRVASMASEKMKILELPFASGTMSMLVLLPDEVSGLEQLESIINFEKLTEWTSSNVMEERKIKVYLPRMKMEEKYNLTSVLMAMGITDVFSSSANLSGISSAESLKISQAVHAAHAEINEAGREVVGSAEAGVDAASVSEEFRADHPFLFCIKHIATNAVLFFGRCVSP
notes: model antigen, unmodified
As to B2, the “less IFN-γ produced by T cells responding to OVA than to (OVA)-3-1” value in the test with IFN-γ was 40%.
